# T1: miR2-FL-WT-T7 (mouse iRhom2 full length wild type C-terminally tagged with 3 consecutive copies of the T7 … (mouse, UniProt Q80WQ6 1-827))
# T1 construct: also called mouse iRhom2 variant expressed by MEF-DKO-miR2-FL-WT-T7 cells
# T1 sequence: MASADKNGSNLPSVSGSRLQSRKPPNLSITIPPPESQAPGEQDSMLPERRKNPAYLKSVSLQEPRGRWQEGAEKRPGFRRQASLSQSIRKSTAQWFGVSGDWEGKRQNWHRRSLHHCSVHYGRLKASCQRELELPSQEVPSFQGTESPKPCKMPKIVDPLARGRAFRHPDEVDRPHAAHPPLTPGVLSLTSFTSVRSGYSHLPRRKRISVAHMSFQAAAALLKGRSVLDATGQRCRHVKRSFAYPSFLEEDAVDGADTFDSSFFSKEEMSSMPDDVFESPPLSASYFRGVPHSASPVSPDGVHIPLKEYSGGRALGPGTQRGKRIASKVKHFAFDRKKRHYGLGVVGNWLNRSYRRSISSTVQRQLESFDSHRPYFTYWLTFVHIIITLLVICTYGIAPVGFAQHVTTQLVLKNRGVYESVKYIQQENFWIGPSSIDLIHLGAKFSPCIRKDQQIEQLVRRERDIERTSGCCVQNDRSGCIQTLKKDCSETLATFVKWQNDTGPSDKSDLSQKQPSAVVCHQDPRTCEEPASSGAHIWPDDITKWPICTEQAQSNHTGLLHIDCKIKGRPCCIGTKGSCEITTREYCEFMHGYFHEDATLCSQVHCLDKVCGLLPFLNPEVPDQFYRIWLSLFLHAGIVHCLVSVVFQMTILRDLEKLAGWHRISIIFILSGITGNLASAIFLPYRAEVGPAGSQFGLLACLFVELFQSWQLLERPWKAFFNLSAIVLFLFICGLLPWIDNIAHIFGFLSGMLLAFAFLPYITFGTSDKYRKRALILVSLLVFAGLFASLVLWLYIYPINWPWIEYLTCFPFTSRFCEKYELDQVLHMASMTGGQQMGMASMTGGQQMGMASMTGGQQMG
# B1: antibody 43 (antibody, V domains shown)
# VH: QVALKESGPGILQPSQTLSLTCSFSGFSLSTFGMGVGWIRQSSGKGLEWLANIWWDDDKYYNPALKSRLTISKDASKNQAFLKIANVDTADTATYYCARIGNYGSNYWYFDVWGTGTTVTVSS
# VL: QIVLTQSPAIMSASPGERVTMTCSANSRISYMYWYQQKPGSSPRLLIYDTSNLASGVPVRFSGSGSGTSYSLTISRMEAEDAATYNCQQWSSYPLTFGAGTKLELK
# notes: Mouse IgG, kappa light chain; also called clone #43
# B2: antibody 42 (antibody, V domains shown)
# VH: QVTLKESGPGILQPSQTLSLTCSLSGFSLSTFGRGVGWIRQPSGKGLEWLAHIWWDDEKYYNPALKSRLTISKDTSKNQVFLRIANVDTADTATYYCARIQNYGSNYWYFDVWGTGTTVTVSS
# VL: LIVLTQSPAIMSASPGEKVTMTCGATSRISYMFWYQQKPGSSPRVLIYDTSNLASGVPVRFSGSGSGTSYSLTISRVEAEDVATYYCQQWNSYPLTFGAGTKLELK
# notes: Mouse IgG, kappa light chain; also called clone #42; m42
# B3: antibody 44 (antibody, V domains shown)
# VH: QVTLKESGPGILQPSQTLSLTCSFSGFSLSTFGMGVGWIRQPSEKGLEWLAHIWWDDDKYYNPALKSRLTISKDTSKNQIFLKITNVDTAETATYYCSRIGNYGSNYWYFDVWGTGTTVTVSS
# VL: QIVLTQSPAVMSASPGEKVTMTCTASSSVYYMYWYQQTPGSSPRLLIYDTSNLASGVPVRFSGSGSGTSYSLTISRMEAEDAATYYCQQWNTYPLTFGAGTKLELK
# notes: Mouse IgG, kappa light chain; also called clone #44; m44
# B4: antibody 5 (antibody, V domains shown)
# VH: QVTLKESGPGILQPSQTLSLTCSFSGFSLSTFGMGVGWIRQPSGKGLEWLAHIWWDDEKYYNSALKSRLTISKATSKNQAFLKIANVDTADTATYYCARISNYGSNYWYFNVWGTGTTVTVSS
# VL: QVVLTQSPALMSASPGEKVTMTCSAGSSVSCMYWYQQKPGSSPRVLIYDTSNLASGVPARFTGSGSGTSYSLTISRMEAEDAASYYCQQWNSYPLTFGAGTKLELK
# notes: Mouse IgG, kappa light chain; also called clone #5; purified antibody 5
# B5: antibody 22 (antibody, V domains shown)
# VH: QVTLKESGPGILQPSQTLSLTCSFSGFSLSTFGMGVGWIRQPSGKGLEWLAHIWWDDEKYYNSALKSRLTISKATSKNQVFLKIANVDTADTATYYCARISNYGSNYWYFNVWGTGTTVTVSS
# VL: QVVLTQSPALMSASPGEKVTMTCSAGSSVSYMYWYQQKPGSSPRVLIYDTSNLASGVPARFTGSGSGTSYSLTISRMEAEDAATYYCQQWNSYPLTFGAGTKLELK
# notes: Mouse IgG, kappa light chain; also called clone #22; m22
# B6: antibody 50 (antibody, V domains shown)
# VH: QVQLQQSGAELVRPGASVKVSCKASGYAFSNYLIEWVKQRPGQGLEWIGVINPGSGFTKYNEKFKGKATLTADKSSSTAYMQLSSLTSEDSAVYFCARGLYRAMDYWGQGTSVTVSS
# VL: DIQMTQSPASQSASLGESVTITCLASQTIGTWLAWYQQKPGKSPQLLIYAAASLADGVPSRFSGGGSGTKFSFKISSLQAEDFVNYYCQQIYSTPYTFGGGTKLEIK
# notes: Mouse IgG, kappa light chain; also called clone #50; purified antibody 50
# B7: antibody 16 (antibody, V domains shown)
# VH: QVTLKESGPGILQPSQTLSLTCSFSGFSLSTFALGVGWIRQPSGRGLEWLAHIWWDDDKYYNPALKSRLTISKDTSKNHVFLKIANVDTADTATYYCARITTYYYGMDYWGQGTSVTVSS
# VL: DIVLSQSPATLSVTPGDSVSLFCRASQSIGNHLHWYQQESHASPRLLIKYASQSISGIPSRFSGSGSGTDFTLSINSVETEDFGMYFCQQSYNWPLTFGAGTKLELK
# notes: Mouse IgG, kappa light chain; also called clone #16; m16
# B8: antibody 3 (antibody, V domains shown)
# VH: QVTLKESGPGILQPSQTLSLTCSFSGFSLTTFAMGIGWVRQPSGKGLEWLAHIWWDGEKYNNPVLKSRLTISKDTSKNQVFLRIANVDTPDTATYYCARISSIYYIIDNWGQGTSVTVSS
# VL: DIVLTQSPATLSVTPGHSVSLSCRASQSISNNLHWYQKKSHESPRLLIKYVSQSISGIPSRFSGSGSGTDFTLSINSVETEDFGMYFCQQSYNWPLTFGAGTKLELK
# notes: Mouse IgG, kappa light chain; also called clone #3; purified antibody 3
# B9: antibody 34 (antibody, V domains shown)
# VH: QVTLKESGPGILQPSQTLSLTCSFSGFSLSTFSLGVGWIRQSSGKGLEWLAHIWWDDEKYYNPALKSRLTISKDTSKNQVFLKIANVDAADTATYYCARAYYSKSYYALDYWGQGTSVTVSS
# VL: DIQMTQSPSSLSASLGERVSLTCRASQEISGYLSWLQQKPDGTIKRLIYAASTLDSGVPKRFSGSRSGSDYSLAISSLESEDFADYYCLQYANFPFTFGSGTKLEIK
# notes: Mouse IgG, kappa light chain; also called clone #34; m34
# Target: T1, miR2-FL-WT-T7 (mouse iRhom2 full length …)
# Assay: FACS on cells of the row mouse iR2 wild type, vs human iR2 wild type = 100%
# Text: In brief, immortalized MEF-DKO-hiR2-FL-WT-T7 cells, MEF-DKO-miR2-FL-WT-T7 cells and MEF-DKO-hiR2-FL-R441K-T7, MEF-DKO-hiR2-FL-K443R-T7, MEF-DKO-hiR2-FL-V459I-T7, MEF-DKO-hiR2-FL-G481Q-T7, MEF-DKO-hiR2-FL-L488R-T7, MEF-DKO-hiR2-FL-L493I-T7, MEF-DKO-hiR2-FL-D496T-T7, MEF-DKO-hiR2-FL-H505R-T7, MEF-DKO-hiR2-FL-Q512L-T7, MEF-DKO-hiR2-FL-R513K-T7, MEF-DKO-hiR2-FL-D528N-T7, MEF-DKO-hiR2-FL-P533-T7, MEF-DKO-hiR2-FL-M534S-T7, MEF-DKO-hiR2-FL-G540S-T7, MEF-DKO-hiR2-FL-R543Q-T7, MEF-DKO-hiR2-FL-T544P-T7, MEF-DKO-hiR2-FL-G546A-T7, MEF-DKO-hiR2-FL-A547V-T7, MEF-DKO-hiR2-FL-R582Q-T7, MEF-DKO-hiR2-FL-F588L-T7, MEF-DKO-hiR2-FL-M591I-T7, MEF-DKO-hiR2-FL-E594K-T7, MEF-DKO-hiR2-FL-E626D-T7, MEF-DKO-hiR2-FL-L657I-T7, and MEF-DKO-hiR2-FL-H835Y-T7 cells were harvested with 10 mM EDTA in PBS, washed and resuspended in FACS buffer (PBS, 3% FBS, 0.05% sodium azide), and seeded in Nunc U-bottom 96-well plates (Thermo Fisher Scientific, USA) at approximately 3×10⁵ cells per well. To pellet cells and remove supernatants, the plates were centrifuged at 1,500 rpm and 4° C. for 3 minutes. For primary staining, cells were resuspended in 100 μl per well of either FACS buffer alone (controls) or the purified antibodies 3, 5, 16, 22, 34, 42, 43, 44, 48, and 50 of the present disclosure at 3 μg/ml FACS buffer and incubated on ice for 1 hour. Afterwards, plates were centrifuged at 1,500 rpm and 4° C. for 3 minutes and washed twice with 200 μl per well of FACS buffer. For secondary staining, cells were spun down and resuspended in 100 μl per well of PE-conjugated goat anti-mouse IgG F(ab′)2 detection fragment (Dianova, Germany) diluted 1:100 in FACS buffer. Protected from light, the cell suspensions were incubated on ice for 1 hour. Plates were then centrifuged at 1,500 rpm and 4° C. for 3 minutes and washed three times with 200 μl per well of FACS buffer. Finally, cells were resuspended in 150 μl per well of FACS buffer and analyzed using a BD Accuri™ C6 Plus flow cytometer (Becton Dickinson, Germany).
row,Binder,grade of loss of binding vs wild type
1,B1,3 grade (3 => 95% loss of binding vs wild type)
2,B2,3 grade (3 => 95% loss of binding vs wild type)
3,B3,3 grade (3 => 95% loss of binding vs wild type)
4,B4,3 grade (3 => 95% loss of binding vs wild type)
5,B5,3 grade (3 => 95% loss of binding vs wild type)
6,B6,3 grade (3 => 95% loss of binding vs wild type)
7,B7,3 grade (3 => 95% loss of binding vs wild type)
8,B8,3 grade (3 => 95% loss of binding vs wild type)
9,B9,3 grade (3 => 95% loss of binding vs wild type)
